Experimental data from PMC314469, “Protein Interaction Networks by Proteome Peptide Scanning” (PLoS Biology, 2004).
Each block holds one binder with its values, some of them ahead of it.

What was measured:
Assay in all cases: SPOT array
[1] = target: T1, Yfr024 SH3 (LSB3_YEAST), P43603
T1 chain: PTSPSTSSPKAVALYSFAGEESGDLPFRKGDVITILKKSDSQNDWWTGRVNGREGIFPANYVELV

[2] = target: Sho1 SH3 (SHO1_YEAST), P40073
[3] = target: T2, Rvs167 SH3 (RV167_YEAST), P39743
T2 chain: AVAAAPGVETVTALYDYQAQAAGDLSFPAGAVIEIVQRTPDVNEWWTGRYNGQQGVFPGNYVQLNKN

[4] = target: T3, Myo5 SH3 (MYO5_YEAST), Q04439
T3 chain: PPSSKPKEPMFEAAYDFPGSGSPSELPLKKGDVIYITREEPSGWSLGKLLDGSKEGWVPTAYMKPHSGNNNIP

[5] = target: T4, Yhr016c SH3 (YSC84_YEAST), P32793
T4 chain: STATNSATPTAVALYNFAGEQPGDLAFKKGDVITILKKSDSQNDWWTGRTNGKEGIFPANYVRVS

[6] = target: T5, Boi1 SH3 (BOI1_YEAST), P38041
T5 chain: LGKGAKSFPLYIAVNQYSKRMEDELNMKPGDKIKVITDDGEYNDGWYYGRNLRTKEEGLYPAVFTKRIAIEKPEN

[7] = target: T6, Boi2 SH3 (BOI2_YEAST), P39969
T6 chain: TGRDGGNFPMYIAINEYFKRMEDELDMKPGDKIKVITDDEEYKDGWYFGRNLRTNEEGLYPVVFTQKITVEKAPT

Sho1 SH3 (SHO1_YEAST), P40073, sequence (P40073 295-366): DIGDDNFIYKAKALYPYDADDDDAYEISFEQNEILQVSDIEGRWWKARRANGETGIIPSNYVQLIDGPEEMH

B2: YLR290C 162-175 (peptide)
chain: ISADKGFPLIPSGY
normalised SPOT signal, Boehringer light units (BLU); mean over the file's lines of this peptide [1]: 38.2
normalised SPOT signal, Boehringer light units (BLU); mean over the file's lines of this peptide [2]: 32.9
normalised SPOT signal, Boehringer light units (BLU); mean over the file's lines of this peptide [3]: 32.4
normalised SPOT signal, Boehringer light units (BLU); mean over the file's lines of this peptide [4]: 113
normalised SPOT signal, Boehringer light units (BLU); mean over the file's lines of this peptide [5]: 14.4
normalised SPOT signal, Boehringer light units (BLU); mean over the file's lines of this peptide [6]: 30.1
normalised SPOT signal, Boehringer light units (BLU); mean over the file's lines of this peptide [7]: 16.8

B7: YLR129W 367-380 (peptide)
chain: IPYEKRDPTSPAPL
normalised SPOT signal, Boehringer light units (BLU); mean over the file's lines of this peptide [1]: 51.8
normalised SPOT signal, Boehringer light units (BLU); mean over the file's lines of this peptide [2]: 29.3
normalised SPOT signal, Boehringer light units (BLU); mean over the file's lines of this peptide [3]: 58.4
normalised SPOT signal, Boehringer light units (BLU); mean over the file's lines of this peptide [4]: 114
normalised SPOT signal, Boehringer light units (BLU); mean over the file's lines of this peptide [5]: 26.9
normalised SPOT signal, Boehringer light units (BLU); mean over the file's lines of this peptide [6]: 43.8
normalised SPOT signal, Boehringer light units (BLU); mean over the file's lines of this peptide [7]: 7.7

B9: YKL071W 35-48 (peptide)
chain: ITSIRGSPSLPKNK
normalised SPOT signal, Boehringer light units (BLU); mean over the file's lines of this peptide [1]: 1400
normalised SPOT signal, Boehringer light units (BLU); mean over the file's lines of this peptide [2]: 111
normalised SPOT signal, Boehringer light units (BLU); mean over the file's lines of this peptide [3]: 104
normalised SPOT signal, Boehringer light units (BLU); mean over the file's lines of this peptide [4]: 370
normalised SPOT signal, Boehringer light units (BLU); mean over the file's lines of this peptide [5]: 44.2
normalised SPOT signal, Boehringer light units (BLU); mean over the file's lines of this peptide [6]: 420
normalised SPOT signal, Boehringer light units (BLU); mean over the file's lines of this peptide [7]: 31.5

B10: YER132C 703-716 (peptide)
chain: ISHNKLSPSEPILS
normalised SPOT signal, Boehringer light units (BLU); mean over the file's lines of this peptide [1]: 0
normalised SPOT signal, Boehringer light units (BLU); mean over the file's lines of this peptide [2]: 19.4
normalised SPOT signal, Boehringer light units (BLU); mean over the file's lines of this peptide [3]: 48.3
normalised SPOT signal, Boehringer light units (BLU); mean over the file's lines of this peptide [4]: 206
normalised SPOT signal, Boehringer light units (BLU); mean over the file's lines of this peptide [5]: 22.7
normalised SPOT signal, Boehringer light units (BLU); mean over the file's lines of this peptide [6]: 0
normalised SPOT signal, Boehringer light units (BLU); mean over the file's lines of this peptide [7]: 34

B11: YBR028C 374-387 (peptide)
chain: IQQNKQGPKIPFYL
normalised SPOT signal, Boehringer light units (BLU); mean over the file's lines of this peptide [1]: 19
normalised SPOT signal, Boehringer light units (BLU); mean over the file's lines of this peptide [2]: 19.8
normalised SPOT signal, Boehringer light units (BLU); mean over the file's lines of this peptide [3]: 23.5
normalised SPOT signal, Boehringer light units (BLU); mean over the file's lines of this peptide [4]: 86.9
normalised SPOT signal, Boehringer light units (BLU); mean over the file's lines of this peptide [5]: 5
normalised SPOT signal, Boehringer light units (BLU); mean over the file's lines of this peptide [6]: 107
normalised SPOT signal, Boehringer light units (BLU); mean over the file's lines of this peptide [7]: 12.3

B12: YEL056W 121-134 (peptide)
chain: ITRARYMPQDPNIV
normalised SPOT signal, Boehringer light units (BLU); mean over the file's lines of this peptide [1]: 486
normalised SPOT signal, Boehringer light units (BLU); mean over the file's lines of this peptide [2]: 153
normalised SPOT signal, Boehringer light units (BLU); mean over the file's lines of this peptide [3]: 111
normalised SPOT signal, Boehringer light units (BLU); mean over the file's lines of this peptide [4]: 190
normalised SPOT signal, Boehringer light units (BLU); mean over the file's lines of this peptide [5]: 84.6
normalised SPOT signal, Boehringer light units (BLU); mean over the file's lines of this peptide [6]: 2220
normalised SPOT signal, Boehringer light units (BLU); mean over the file's lines of this peptide [7]: 70.9

B13: YFR029W 524-537 (peptide)
chain: ITDTKLFPGNPNLM
normalised SPOT signal, Boehringer light units (BLU); mean over the file's lines of this peptide [1]: 28.7
normalised SPOT signal, Boehringer light units (BLU); mean over the file's lines of this peptide [2]: 43.8
normalised SPOT signal, Boehringer light units (BLU); mean over the file's lines of this peptide [3]: 67.4
normalised SPOT signal, Boehringer light units (BLU); mean over the file's lines of this peptide [4]: 94.6
normalised SPOT signal, Boehringer light units (BLU); mean over the file's lines of this peptide [5]: 15.4
normalised SPOT signal, Boehringer light units (BLU); mean over the file's lines of this peptide [6]: 113
normalised SPOT signal, Boehringer light units (BLU); mean over the file's lines of this peptide [7]: 2.3

B15: YKR019C 209-222 (peptide)
chain: KALPKRRPSPPLQS
normalised SPOT signal, Boehringer light units (BLU); mean over the file's lines of this peptide [1]: 13400
normalised SPOT signal, Boehringer light units (BLU); mean over the file's lines of this peptide [2]: 758
normalised SPOT signal, Boehringer light units (BLU); mean over the file's lines of this peptide [3]: 906
normalised SPOT signal, Boehringer light units (BLU); mean over the file's lines of this peptide [4]: 1140
normalised SPOT signal, Boehringer light units (BLU); mean over the file's lines of this peptide [5]: 2190
normalised SPOT signal, Boehringer light units (BLU); mean over the file's lines of this peptide [6]: 1770
normalised SPOT signal, Boehringer light units (BLU); mean over the file's lines of this peptide [7]: 30.5

B16: YBL088C 2501-2514 (peptide)
chain: IRTYKVVPLGPKAG
normalised SPOT signal, Boehringer light units (BLU); mean over the file's lines of this peptide [1]: 115
normalised SPOT signal, Boehringer light units (BLU); mean over the file's lines of this peptide [2]: 61.2
normalised SPOT signal, Boehringer light units (BLU); mean over the file's lines of this peptide [3]: 38.5
normalised SPOT signal, Boehringer light units (BLU); mean over the file's lines of this peptide [4]: 100
normalised SPOT signal, Boehringer light units (BLU); mean over the file's lines of this peptide [5]: 44.5
normalised SPOT signal, Boehringer light units (BLU); mean over the file's lines of this peptide [6]: 146
normalised SPOT signal, Boehringer light units (BLU); mean over the file's lines of this peptide [7]: 38.8

Now from value to binder:

normalised SPOT signal, Boehringer light units (BLU); mean over the file's lines of this peptide [1]: 32.9
normalised SPOT signal, Boehringer light units (BLU); mean over the file's lines of this peptide [2]: 60.7
normalised SPOT signal, Boehringer light units (BLU); mean over the file's lines of this peptide [3]: 84.8
normalised SPOT signal, Boehringer light units (BLU); mean over the file's lines of this peptide [4]: 156
normalised SPOT signal, Boehringer light units (BLU); mean over the file's lines of this peptide [5]: 18.6
normalised SPOT signal, Boehringer light units (BLU); mean over the file's lines of this peptide [6]: 21.4
normalised SPOT signal, Boehringer light units (BLU); mean over the file's lines of this peptide [7]: 18.7
B1: YNL007C 28-41 (peptide)
chain: KAALKYHPDKPTGD

normalised SPOT signal, Boehringer light units (BLU); mean over the file's lines of this peptide [1]: 63.9
normalised SPOT signal, Boehringer light units (BLU); mean over the file's lines of this peptide [2]: 116
normalised SPOT signal, Boehringer light units (BLU); mean over the file's lines of this peptide [3]: 3.5
normalised SPOT signal, Boehringer light units (BLU); mean over the file's lines of this peptide [4]: 94.2
normalised SPOT signal, Boehringer light units (BLU); mean over the file's lines of this peptide [5]: 71.1
normalised SPOT signal, Boehringer light units (BLU); mean over the file's lines of this peptide [6]: 92.4
normalised SPOT signal, Boehringer light units (BLU); mean over the file's lines of this peptide [7]: 0
B3: YMR219W 1471-1484 (peptide)
chain: ITAEKSAPTSPEVY

normalised SPOT signal, Boehringer light units (BLU); mean over the file's lines of this peptide [1]: 189
normalised SPOT signal, Boehringer light units (BLU); mean over the file's lines of this peptide [2]: 144
normalised SPOT signal, Boehringer light units (BLU); mean over the file's lines of this peptide [3]: 160
normalised SPOT signal, Boehringer light units (BLU); mean over the file's lines of this peptide [4]: 294
normalised SPOT signal, Boehringer light units (BLU); mean over the file's lines of this peptide [5]: 86.8
normalised SPOT signal, Boehringer light units (BLU); mean over the file's lines of this peptide [6]: 182
normalised SPOT signal, Boehringer light units (BLU); mean over the file's lines of this peptide [7]: 21
B4: YML030W 25-38 (peptide)
chain: IYHSKKQPLVPIGS

normalised SPOT signal, Boehringer light units (BLU); mean over the file's lines of this peptide [1]: 36800
normalised SPOT signal, Boehringer light units (BLU); mean over the file's lines of this peptide [2]: 129
normalised SPOT signal, Boehringer light units (BLU); mean over the file's lines of this peptide [3]: 82100
normalised SPOT signal, Boehringer light units (BLU); mean over the file's lines of this peptide [4]: 377
normalised SPOT signal, Boehringer light units (BLU); mean over the file's lines of this peptide [5]: 17200
normalised SPOT signal, Boehringer light units (BLU); mean over the file's lines of this peptide [6]: 4610
normalised SPOT signal, Boehringer light units (BLU); mean over the file's lines of this peptide [7]: 56.9
B5: YPR091C 658-671 (peptide)
chain: ISNRRPVPRRPSQP

normalised SPOT signal, Boehringer light units (BLU); mean over the file's lines of this peptide [1]: 3260
normalised SPOT signal, Boehringer light units (BLU); mean over the file's lines of this peptide [2]: 99.1
normalised SPOT signal, Boehringer light units (BLU); mean over the file's lines of this peptide [3]: 294
normalised SPOT signal, Boehringer light units (BLU); mean over the file's lines of this peptide [4]: 82300
normalised SPOT signal, Boehringer light units (BLU); mean over the file's lines of this peptide [5]: 167
normalised SPOT signal, Boehringer light units (BLU); mean over the file's lines of this peptide [6]: 17300
normalised SPOT signal, Boehringer light units (BLU); mean over the file's lines of this peptide [7]: 26.7
B6: YNR039C 117-130 (peptide)
chain: IPAPKLVPPPPRTR

normalised SPOT signal, Boehringer light units (BLU); mean over the file's lines of this peptide [1]: 201
normalised SPOT signal, Boehringer light units (BLU); mean over the file's lines of this peptide [2]: 178
normalised SPOT signal, Boehringer light units (BLU); mean over the file's lines of this peptide [3]: 41.7
normalised SPOT signal, Boehringer light units (BLU); mean over the file's lines of this peptide [4]: 146
normalised SPOT signal, Boehringer light units (BLU); mean over the file's lines of this peptide [5]: 43
normalised SPOT signal, Boehringer light units (BLU); mean over the file's lines of this peptide [6]: 0
normalised SPOT signal, Boehringer light units (BLU); mean over the file's lines of this peptide [7]: 47.8
B8: YML130C 280-293 (peptide)
chain: KALWKIQPYLPEFS

normalised SPOT signal, Boehringer light units (BLU); mean over the file's lines of this peptide [1]: 74.4
normalised SPOT signal, Boehringer light units (BLU); mean over the file's lines of this peptide [2]: 86.8
normalised SPOT signal, Boehringer light units (BLU); mean over the file's lines of this peptide [3]: 51.5
normalised SPOT signal, Boehringer light units (BLU); mean over the file's lines of this peptide [4]: 102
normalised SPOT signal, Boehringer light units (BLU); mean over the file's lines of this peptide [5]: 11.6
normalised SPOT signal, Boehringer light units (BLU); mean over the file's lines of this peptide [6]: 73.8
normalised SPOT signal, Boehringer light units (BLU); mean over the file's lines of this peptide [7]: 20.9
B14: YOR191W 260-273 (peptide)
chain: IVNEKRTPALPSNL
